The target of assay [1] is T1, PurTCp (PurT of Colwellia psychrerythraea) (Colwellia psychrerythraea, UniProt Q484N1).
T1 sequence (Q484N1 1-482): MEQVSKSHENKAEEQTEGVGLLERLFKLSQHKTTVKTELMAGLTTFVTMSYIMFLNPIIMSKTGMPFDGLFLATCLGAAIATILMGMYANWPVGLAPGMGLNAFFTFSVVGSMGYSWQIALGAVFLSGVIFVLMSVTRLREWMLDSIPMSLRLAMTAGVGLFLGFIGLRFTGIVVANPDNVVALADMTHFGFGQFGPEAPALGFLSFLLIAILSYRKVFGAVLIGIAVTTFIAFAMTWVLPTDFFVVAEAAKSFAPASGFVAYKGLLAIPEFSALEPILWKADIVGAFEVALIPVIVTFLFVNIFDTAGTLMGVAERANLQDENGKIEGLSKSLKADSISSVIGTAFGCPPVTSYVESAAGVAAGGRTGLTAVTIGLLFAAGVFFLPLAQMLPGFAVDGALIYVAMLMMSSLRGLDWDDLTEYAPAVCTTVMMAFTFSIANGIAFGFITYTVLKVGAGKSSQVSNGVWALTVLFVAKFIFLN
As to the kind of experiment: SPA competition with 3H-xanthine or 3H-guanine. Format: binding. As to conditions: 0.5 µM 3H-xanthine or 3H-guanine; pH 8.0.

The target in assay [2] is PurT of Colwellia psychrerythraea (PurTCp) (Colwellia psychrerythraea 34H). As to the kind of experiment: SEC.
For assay [3] the target is unchanged. As to the kind of experiment: cross-linking.

Results on two compounds are retold here after PMC10438392 (Proceedings of the National Academy of Sciences of the …, 2023).

In general, stoichiometry N refers to a count of units in the complex or per binding partner.

For `c1ncc2[nH]cnc2n1` [purine], the “% inhibition at 250 μM” value in assay [1] is 2-amino-6-bromopurine, 6-bromopurine, 6-thioguanine, allopurinol, isoguanine, and purine.
For the compound “PurT of Colwellia psychrerythraea (PurTCp) (natural protein)”, the stoichiometry N in assay [2] and in assay [3] was 2 in each case.
